The results in this text go back to patent US20240352105A1, “COMPOSITIONS AND METHODS FOR NEUTRALIZING ANTIGENS” (PACAGEN, INC, priority 2023, published 2024).

To fix the notation:
B1: SDAB22110-4-3-H02: anti-Fel d1 VHH clone, SEQ ID NO: 57 (protein)
VHH: QLQLVESGGGLVQPGGSLRLSCEASGFTFKYYTMSWYRQAPGKERELVATITNGDRTNYADSVKGRFTISRDNAKNTLYLQMNSLKPYDTAVYYCNRHLPLLQIWGQGTQVTVSS
B2: SDAB22110-3-2-H08: anti-Fel d1 VHH clone, SEQ ID NO: 53 (protein)
VHH: QVQLVESGGGLVQPGGSLRLSCAASGFTFSRKGMSWYRQVPGKEREWVARIYSTGEKTDYADSVKGRFTISRDNAKNMVYLDMNSLKPEDTAVYYCKAWGYEYWNQGTQVTVSS
B3: SDAB22110-4-3-E05: anti-Fel d1 VHH clone, SEQ ID NO: 55 (protein)
VHH: QVQLVESGGGLVQPGGSLRLSCVGSGFTFSQYAMRWYRQVPGKARELVAAISRSGDFMYYADSVKGRFTISRDNVKSAVILQMNSLKPEDTAVYYCYGQATISDTLWGQGTQVTVSS
B4: SDAB22110-4-3-G08: anti-Fel d1 VHH clone, SEQ ID NO: 56 (protein)
VHH: DVQLVESGGGLVQPGGSLRLSCAASGFTFSLYYMSWYRQVPGKERELVATITSGTHATTYADSVKGRFTISRDNAKNTVSLQMNSLKREDTGVYYCKRTNAGQDPWGQGTQVTVSS
B5: SDAB22110-1-1-E4: anti-Fel d1 VHH clone, SEQ ID NO: 51 (protein)
VHH: QLQLVESGGGLVQPGGSLRLSCTASGFTFSTAGTSWYRQSPGKARKLVAELSRIGGIANYADSVKGRFTISRDNTRNTVYLQMNSLKPEDTAVYYCKVVTNRNYGFTYWGQGTQVTVSS
B6: SDAB22110-4-3-B02: anti-Fel d1 VHH clone, SEQ ID NO: 54 (protein)
VHH: QVQLVESGGGLVQPGGSLRLSCVASGFTFSFYTMEWYRQAAGKQRELVAGLTASGTTHYADSAKGRFTISRDNAWNTVFLQMNGLKPEDTAVYYCNAYSGYRDYWGQGTQVTVSL

Test system in the first data set: not listed separately
Nature of the data set: Thermostability (Tm, Tonset, Tagg) by Nanotemper DSF. Type of data set: physicochemical. Details: key to Tm2 / Tagg / Tm1 / Tm / Tm3 / Tonset / Tonset ø (mean) / Tagg ø (mean): temperatures in °C. As to conditions: Average of two replicates; anti-Fel d1 VHH. The method, boiled down: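 Isolated VHH clones were heated from 20 °C to 95 °C at 1 °C/min using DSF. Tm, Tonset and Tagg were derived from the thermal curves. Where several melting transitions occurred, each was reported in order (Tm1, Tm2, etc.).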
As for B1, the “Tagg ø (mean)” value stood at 42.29 and the “Tonset ø (mean)” value is on record as 47.54.

Take B2: the “Tagg ø (mean)” value worked out at 42.30 and the “Tonset ø (mean)” value stood at 37.18.

Turning to B3, the “Tagg ø (mean)” value stood at 40.93 and the “Tonset ø (mean)” value came out at 35.67.

For B4, the “Tagg ø (mean)” value was 31.74; the “Tm ø (mean), first melting point (Tm1)” value is recorded as 37.85,; the “Tonset ø (mean)” value was found to be 27.92.

As for B5, the “Tagg ø (mean)” value was determined as 39.61 and the “Tonset ø (mean)” value was found to be 40.64.

On to B6, for which the “Tagg ø (mean)” value is 35.68 and the “Tonset ø (mean)” value came out at 33.78.

The data set is the same for the next values; noted with them: Average of two replicates; anti-Fel d1 VHH; in °C (unit assumed).
Consider B1, for which the “Tm ø (mean), first melting point (Tm1)” value was 58.58.

As for B2, the “Tm ø (mean), first melting point (Tm1)” value was determined as 47.50.

Regarding B3, the “Tm ø (mean), first melting point (Tm1)” value worked out at 46.83.

In the case of B4, the “Tm ø (mean), second melting point (Tm2)” value is listed as 47.65 and the “Tm ø (mean), third melting point (Tm3)” value is given as 62.92.

With B5, the “Tm ø (mean), first melting point (Tm1)” value was 50.69.

Regarding B6, the “Tm ø (mean), first melting point (Tm1)” value is 42.43.

The same data set, now with this note: Replicate 1.
In turn, B1 came in with a Tagg of 42.24 and a Tonset of 47.33.

Molecule B2 showed a Tagg of 42.41 and a Tonset of 37.03.

With B3, the Tagg turned out to be 40.93 and the Tonset stood at 35.61.

For B4, the Tagg stood at 31.71; the “Tm, first melting point (Tm1)” value is 37.77,; the Tonset turned out to be 27.93.

Consider B5, for which the Tagg is 39.62 and the Tonset is 40.60.

Regarding B6, the Tagg worked out at 35.55 and the Tonset stood at 33.78.

The same data set, now with this note: Replicate 1; in °C (unit assumed).
In the case of B1, the “Tm, first melting point (Tm1)” value was found to be 58.60.

For the molecule B2, the “Tm, first melting point (Tm1)” value is 47.46.

B3: the “Tm, first melting point (Tm1)” value amounted to 47.02.

Turning to B4, the “Tm, second melting point (Tm2)” value was found to be 47.76 and the “Tm, third melting point (Tm3)” value is 61.85.

For B5, the “Tm, first melting point (Tm1)” value was determined as 50.73.

For the molecule B6, the “Tm, first melting point (Tm1)” value was found to be 42.52.

Staying with this data set, now noted: Replicate 2.
B1 registered a Tagg of 42.35 and a Tonset of 47.76.

Molecule B2 yielded a Tagg of 42.19 and a Tonset of 37.34.

B3 had a Tagg of 40.93 and a Tonset of 35.73.

As to B4, the Tagg stood at 31.77; the “Tm, first melting point (Tm1)” value is reported as 37.92,; the Tonset stood at 27.92.

B5: the Tagg is on record as 39.61 and the Tonset is 40.64.

With B6, the Tagg is given as 35.82 and the Tonset was 33.78.

Staying with this data set, now noted: Replicate 2; in °C (unit assumed).
On to B1, for which the “Tm, first melting point (Tm1)” value was 58.57.

Regarding B2, the “Tm, first melting point (Tm1)” value is 47.53.

In the case of B3, the “Tm, first melting point (Tm1)” value was 46.64.

With B4, the “Tm, second melting point (Tm2)” value was 47.53 and the “Tm, third melting point (Tm3)” value came to 62.92.

Consider B5, for which the “Tm, first melting point (Tm1)” value was 50.66.

Consider B6, for which the “Tm, first melting point (Tm1)” value was found to be 42.34.

The same data set, now with this note: anti-Fel d1 VHH.
Molecule B1 returned a Tagg of 42.30.

B2 yielded a Tagg of 35.68.

As to B3, the Tagg was 31.74 and the “aggregates” value is given as “Possible”.

The molecule B4 displayed a Tagg of 42.29.

Turning to B5, the Tagg is listed as 42.78 and the “aggregates” value is listed as “Possible”.

As to B6, the Tagg was 40.93.

The same data set, now with this note: anti-Fel d1 VHH; first melting point; in °C (unit assumed).
As to B3, the Tm1 was 37.85.

In the case of B5, the Tm1 is recorded as 41.13.

The data set is the same for the next values; noted with them: anti-Fel d1 VHH; second melting point; in °C (unit assumed).
On to B3, for which the Tm2 was determined as 47.65.

Turning to B5, the Tm2 amounted to 52.88.

Staying with this data set, now noted: anti-Fel d1 VHH; single melting point.
As for B1, the Tm amounted to 47.50.

Still in this data set, the particulars now being: anti-Fel d1 VHH; single melting point; in °C (unit assumed).
For B2, the Tm was determined as 42.43.

B4: the Tm is recorded as 58.58.

On to B6, for which the Tm is listed as 46.83.

Still in this data set, the particulars now being: anti-Fel d1 VHH; third melting point; in °C (unit assumed).
Take B3: the Tm3 stood at 62.39.

The target in the next data set is T1, Fel D1 (Felis catus, UniProt P30438).
T1 construct: made in house; host or cells: chemically synthesized peptides
Nature of the data set: ELISA binding assay of anti-Fel d1 VHH clones on Fel D1 epitopes. To be noted: Epitope Recognized AKMTEEDKENALS (SEQ ID NO: 60). Details: species or system cat. On the procedure:
2 microgram per milliliter (μg/mL) target antigen is coated in a 96-well plate and ELISA assay is performed after incubation with candidate VHHs. The binding EC50 of each clone is calculated using Prism GraphPad. The positive control antibody is involved as an internal control.
Four distinct epitopes of Fel D1 were selected to be used for further identification. Peptides were synthesized for the four epitopes for VHH identification.
Isolated VHH clones were further validated by performing an ELISA assay as described in Example 1. Binding results are shown in FIG. 15B-15D for the epitope of SEQ ID NO: 61. Binding results are shown in FIG. 16 for the epitope of SEQ ID NO: 59. Binding results are shown in FIG. 17A-17E for the epitope of SEQ ID NO: 60. Binding results are shown in FIG. 18 for the epitope of SEQ ID NO: 58.
A general note: In an ELISA, binding on a coated surface is turned into a signal by an enzyme label.
The EC50 is the midpoint of the concentration-response curve. B1 gave an EC50 of 12.940 µg/mL.

Regarding B2, the EC50 came out at 5.024 µg/mL.

In turn, B3 yielded a concentration giving a half-maximal response (EC50) of 1.719 µg/mL.

Consider B4, for which the EC50 was 2.215 µg/mL.

In turn, B6 displayed an EC50 of 12.200 µg/mL.

Still in this data set, the particulars now being: Epitope Recognized ENARILKNCVDAKM (SEQ ID NO: 61).
In the case of B5, the EC50 was 3.305 µg/mL.
